The values that follow are results of earlier work, collected in patent US10463717B2, “Compositions in the form of an injectable aqueous solution comprising amylin, an amylin receptor agonist or an amylin analog, and a co-polyamino acid” (ADOCIA, priority 2016, dated 2019).

Where two headings read alike, the source gives them in different places. No end group written: not given here.

`CC[C@H](C)[C@H](NC(=O)[C@@H]1CCCN1C(=O)CNC(=O)[C@H](Cc1ccccc1)NC(=O)[C@H](CC(N)=O)NC(=O)[C@H](CC(N)=O)NC(=O)[C@H](CO)NC(=O)[C@H](CO)NC(=O)[C@H](Cc1c[nH]cn1)NC(=O)[C@@H](NC(=O)[C@H](CC(C)C)NC(=O)[C@H](Cc1ccccc1)NC(=O)[C@H](CC(N)=O)NC(=O)[C@H](C)NC(=O)[C@H](CC(C)C)NC(=O)[C@H](CCCNC(=N)N)NC(=O)[C@H](CCC(N)=O)NC(=O)[C@@H](NC(=O)[C@H](C)NC(=O)[C@@H]1CSSC[C@H](NC(=O)[C@@H](N)CCCCN)C(=O)N[C@@H](CC(N)=O)C(=O)N[C@@H]([C@@H](C)O)C(=O)N[C@@H](C)C(=O)N[C@@H]([C@@H](C)O)C(=O)N1)[C@@H](C)O)C(C)C)C(=O)N[C@@H](CC(C)C)C(=O)N1CCC[C@H]1C(=O)N1CCC[C@H]1C(=O)N[C@H](C(=O)N[C@@H](CC(N)=O)C(=O)N[C@H](C(=O)NCC(=O)N[C@@H](CO)C(=O)N[C@@H](CC(N)=O)C(=O)N[C@H](C(=O)N[C@@H](Cc1ccc(O)cc1)C(N)=O)[C@@H](C)O)C(C)C)[C@@H](C)O` [pramlintide, reference compound]: for the setting “described for the marketed peptide”, the “pH of the solution above which fibrils form” value is listed as “higher than 5.5”.

On to “amylin: 37 aminoacids peptide which is co-stored and co-secreted with insulin (KCNTATCATQRLANFLVHSSNNFGAILSSTNVGSNTY; not fully specified (C-terminus, bridges); cysteine pairing not given here; UniProt P10997 34-70, looked up)”, for which the “Stability of amylin in solution” value runs as follows: (acidic pH) “about fifteen minutes”; (neutral pH) “less than a minute”.
